Experimental data: patent publication US20060264378A1 (BIOKINE THERAPEUTICS, published 2006)
Numbered stars: 1 amine (or outer) side, 2 acyl side, 3 side chain; on linkers, the order of the positions; unused ones are H or OH. Bridge positions count the residues as written; N and C are the ends. Square brackets hold non-standard residues; d marks the D form. Ends that are not written are not given here. * marks the point of attachment. deaminoTMG = tetramethylguanyl on 5-aminopentanoyl (deaminoTMG-APA, formula II); guanyl = guanyl, N-terminal group, N=C(N)*; 2Nal = N[C@@H](Cc1ccc2ccccc2c1)C(=O)O; Glutaryl = O=C(CCCC(=O)[*:2])[*:1]; Benzoyl(4-F) = O=C(c1ccc(F)cc1)*; dCit = NC(=O)NCCC[C@@H](N)C(=O)O; Cit = NC(=O)NCCC[C@H](N)C(=O)O; Suc = O=C(CCC(=O)[*:2])[*:1]; Ahx = NCCCCCC(=O)O; Ava = NCCCCC(=O)O

B1: 4F-benzoyl-TN14003 (peptide)
peptide: {Benzoyl(4-F)}-RR[2Nal]CY[Cit]K[dK]PYR[Cit]CR-NH2
modifications: disulfide 4-13; also: acetate salt
B2: TF17 (peptide)
peptide: H-R[2Nal]CY[Cit]K[dE]PYR[Cit]CR-NH2
modifications: disulfide 3-12; also: acetate salt
B3: TC14012 (peptide)
peptide: RRXCYXKXPYRXCR
modifications: X at 3 = Nal (L-3-(2-naphthyl)alanine); X at 6 and 12 = Cit (L-citrulline); X at 8 = D-Cit (D-citrulline); disulfide Cys4-Cys13; free N-terminus (H-); C-terminal amide (-NH2)
notes: Tested as acetate salt
B4: TF9 (peptide)
peptide: guanyl-R[2Nal]CY[Cit]K[dE]PYR[Cit]CR-NH2
modifications: disulfide 3-12; also: acetate salt
B5: TF4 (peptide)
peptide: tetramethylguanyl-R[2Nal]CY[Cit]K[dE]PYR[Cit]CR-NH2
modifications: disulfide 3-12; also: acetate salt
B6: TF2 (peptide)
peptide: guanyl-RR[2Nal]CY[Cit]K[dE]PYR[Cit]CR-NH2
modifications: disulfide 4-13; also: acetate salt
B7: TE14005 (peptide)
peptide: H-RR[2Nal]CYRK[dE]PYR[Cit]CR-OH
modifications: disulfide 4-13; also: acetate salt
B8: TE14004 (peptide)
peptide: H-RR[2Nal]CYRE[dK]PYR[Cit]CR-OH
modifications: disulfide 4-13 (inferred); not fully specified; printed as H-Arg-Arg-Nal-Cys-Tyr-Arg-Glu-DLys-Pro-Tyr-Arg-Cit-Cys-Arg-OH; also: acetate salt
B9: TF8 (peptide)
peptide: {2‑desamino‑arginyl}-R[2Nal]CY[Cit]K[dE]PYR[Cit]CR-NH2
modifications: disulfide 3-12; also: acetate salt
B10: TF12 (peptide)
peptide: {deaminoTMG-Ava}-R[2Nal]CY[Cit]K[dE]PYR[Cit]CR-NH2
modifications: disulfide 3-12; also: acetate salt
B11: TE14013 (peptide)
peptide: H-RR[2Nal]CY[dE]K[dE]PYR[Cit]CR-NH2
modifications: disulfide 4-13; also: acetate salt
B12: TF1 (peptide)
peptide: Ac-RR[2Nal]CY[Cit]K[dE]PYR[Cit]CR-NH2
modifications: disulfide 4-13; also: acetate salt
B13: TE14011 (peptide)
peptide: H-RR[2Nal]CY[Cit]K[dE]PYR[Cit]CR-NH2
modifications: disulfide 4-13; also: acetate salt
B14: TF7 (peptide)
peptide: {5‑aminopentanoyl}-R[2Nal]CY[Cit]K[dE]PYR[Cit]CR-NH2
modifications: disulfide 3-12; also: acetate salt
B15: TF20 (peptide)
peptide: [Ahx]RR[2Nal]CYRK[dK]PYR[Cit]CR-OH
modifications: disulfide 5-14; also: acetate salt
B16: TF13 (peptide)
peptide: {nelfinaviryl-Suc}-R[2Nal]CY[Cit]K[dE]PYR[Cit]CR-NH2
modifications: disulfide 3-12; also: acetate salt
B17: TF10 (peptide)
peptide: Suc-R[2Nal]CY[Cit]K[dE]PYR[Cit]CR-NH2
modifications: disulfide 3-12; also: acetate salt
B18: TF11 (peptide)
peptide: Glutaryl-R[2Nal]CY[Cit]K[dE]PYR[Cit]CR-NH2
modifications: disulfide 3-12; also: acetate salt
B19: TF5 (peptide)
peptide: {Benzoyl(4-F)}-RR[2Nal]CY[Cit]K[dE]PYR[Cit]CR-NH2
modifications: disulfide 4-13; also: acetate salt
B20: TE14002 (peptide)
peptide: H-RE[2Nal]CYRK[dK]PYR[Cit]CR-OH
modifications: disulfide 4-13; also: acetate salt
B21: TE14012 (peptide)
peptide: H-RR[2Nal]CY[dE]K[dCit]PYR[Cit]CR-NH2
modifications: disulfide 4-13 (inferred); also: acetate salt
B22: TF3 (peptide)
peptide: tetramethylguanyl-RR[2Nal]CY[Cit]K[dE]PYR[Cit]CR-NH2
modifications: disulfide 4-13; also: acetate salt
B23: TF19 (peptide)
peptide: XRRXCYXKXPYRXCRX
modifications: N-terminal 6-aminohexanoyl (ACA); Nal (L-3-(2-naphthyl)alanine) at 3; Cit (L-citrulline) at 6 and 12; D-Cit (D-citrulline) at 8; disulfide Cys4-Cys13; C-terminal amide (-NH2)
B24: TF18 (peptide)
peptide: XRRXCYXKXPYRXCRX
modifications: N-terminal tetramethylguanyl; Nal (L-3-(2-naphthyl)alanine) at 3; Cit (L-citrulline) at 6 and 12; D-Cit (D-citrulline) at 8; disulfide Cys4-Cys13; C-terminal amide (-NH2)
B25: TF14 (peptide)
peptide: {AZT-Glutaryl}-R[2Nal]CY[Cit]K[dE]PYR[Cit]CR-NH2
modifications: disulfide 3-12; also: acetate salt
B26: TF6 (peptide)
peptide: {2‑fluorobenzoyl}-RR[2Nal]CY[Cit]K[dE]PYR[Cit]CR-NH2
modifications: disulfide 4-13; also: acetate salt
B27: TE14006 (peptide)
peptide: H-RR[2Nal]CYRK[dK]PYE[Cit]CR-OH
modifications: disulfide 4-13 (inferred); also: acetate salt
B28: TE14003 (peptide)
peptide: H-RR[2Nal]CYEK[dK]PYR[Cit]CR-OH
modifications: disulfide 4-13 (inferred); not fully specified; printed as H-Arg-Arg-Nal-Cys-Tyr-Glu-Lys-DLys-Pro-Tyr-Arg-Cit-Cys-Arg-OH; also: acetate salt
B29: TN14003 (peptide)
peptide: H-RR[2Nal]CY[Cit]K[dK]PYR[Cit]CR-NH2
modifications: disulfide 4-13; also: acetate salt
notes: Tested as acetate salt
B30: TF15 (peptide)
peptide: H-RR[2Nal]CY[Cit]K[dE]PYR[Cit]CR-NH2
modifications: disulfide 4-13; also: reduced CH2-NH bond between residues 1 and 2, acetate salt

Biological target: CXCR4 on mouse splenocytes (mouse, UniProt P70658 1-359)
Test: cell-based or functional assay

Sequence of CXCR4 on mouse splenocytes (P70658 whole entry): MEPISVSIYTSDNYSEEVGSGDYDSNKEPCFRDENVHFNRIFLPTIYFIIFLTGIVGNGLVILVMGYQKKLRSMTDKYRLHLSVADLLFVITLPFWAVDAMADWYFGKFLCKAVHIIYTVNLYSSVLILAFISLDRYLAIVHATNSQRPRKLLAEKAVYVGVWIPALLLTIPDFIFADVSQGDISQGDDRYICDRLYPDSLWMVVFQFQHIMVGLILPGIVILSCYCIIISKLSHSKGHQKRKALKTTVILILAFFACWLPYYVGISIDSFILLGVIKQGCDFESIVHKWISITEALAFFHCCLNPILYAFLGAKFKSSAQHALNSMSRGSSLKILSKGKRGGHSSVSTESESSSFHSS

IC50 of inhibition of SDF-1-induced migration of mouse splenocytes (Transwell) [nM]	Binder
0.54	B1

Biological target: T1, CXCR4 receptor (human, UniProt P61073 1-352)
T1 construct: whole, on cells; Endogenous receptor on human cells
Test: cell-based or functional assay

T1 sequence (P61073 whole entry): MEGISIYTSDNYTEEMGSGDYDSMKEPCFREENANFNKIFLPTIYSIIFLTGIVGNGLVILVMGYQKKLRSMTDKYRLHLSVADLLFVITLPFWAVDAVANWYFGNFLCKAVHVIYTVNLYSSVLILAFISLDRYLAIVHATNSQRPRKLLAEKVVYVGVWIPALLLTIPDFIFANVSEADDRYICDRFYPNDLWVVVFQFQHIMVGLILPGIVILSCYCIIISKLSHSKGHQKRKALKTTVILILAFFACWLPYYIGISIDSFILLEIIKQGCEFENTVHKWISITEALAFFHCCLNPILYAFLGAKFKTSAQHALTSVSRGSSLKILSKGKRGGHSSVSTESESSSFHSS

IC50 of inhibition of SDF-1α-induced migration of Jurkat cells (Transwell) [nM]	Binder
0.65	B1

Biological target: T1, CXCR4 receptor
Test: displacement of 125I-CXCL12 from Jurkat cells, filter binding
Method: 50 μL of Jurkat human T-cell leukemia cells (6×10⁶ cells/mL) suspended in buffer (Dulbecco's PBS solution (pH 7.0) containing 0.5% BSA, 20 mM HEPES), 25 μL of test compounds (Table 2: each compound being synthesized in the form of acetate salt) diluted by buffer and 25 μL of 200 p M 125I-CXCL12 solution were respectively dispensed to each well of the plate, and were subjected to fixation reaction for 1 hour at room temperature. After reaction, suction was made toward the reaction solution by 96 well GF/C filter plate, and each well's radioactivity was measured by top count. As the radioactivity index of 100% when the test compound was not added, and 0% when 100 nM of non-radioisotope-labeled CXCL12 was added, the inhibitory activity of each test compound was measured.

IC50 [nM]	Binder
79	B2
2.7	B3
250	B4
9.9	B5
3.3	B6
2.2	B7
6.8	B8
8.2	B9
4.6	B10
9.3	B11
11	B12
2.9	B13
5.7	B14
3.5	B15
0.99	B1
21	B16
48	B17
630	B18
2.8	B19
680	B20
5.4	B21
9.6	B22
4.5	B23
8	B24
49	B25
3.9	B26
5.6	B27
5	B28
2.6	B29
95	B30
